Non-standard residues stand in square brackets, D forms with d. Primed or numbered codes have the meaning given here. No end group written: not given here. Phe(4-Me) = Cc1ccc(C[C@H](N)C(=O)O)cc1; FITC′ = not defined here
Key:
Assay in all cases: FRET or BRET; HEK293 cells transfected with Rluc-ADGRG2-ΔGPS-β WT or mutants, stimulated by increasing concentrations of FITC-conjugated VPM-p15; saturation curves fitted with GraphPad; each experiment repeated 6 times
Conditions in all cases: one partner purified
Rluc-ADGRG2-ΔGPS-β V762A = molecular target: T1, Rluc-ADGRG2-ΔGPS-β V762A (mouse, UniProt Q8CJ12-3 38-995, V762A)
T1 construct: ADGRG2 (GPR64), mouse, ADGRG2-ΔGPS-β: the entire ECD removed; source: HEK293, transfected, on cells; not shown: Rluc, N-terminal, kept

Rluc-ADGRG2-ΔGPS-β F838A = molecular target: T2, Rluc-ADGRG2-ΔGPS-β F838A (mouse, UniProt Q8CJ12-3 38-995, F838A)
T2 construct: ADGRG2 (GPR64), mouse, ADGRG2-ΔGPS-β: the entire ECD removed; source: HEK293, transfected, on cells; not shown: Rluc, N-terminal, kept

Rluc-ADGRG2-ΔGPS-β F828A = molecular target: T3, Rluc-ADGRG2-ΔGPS-β F828A (mouse, UniProt Q8CJ12-3 38-995, F828A)
T3 construct: ADGRG2 (GPR64), mouse, ADGRG2-ΔGPS-β: the entire ECD removed; source: HEK293, transfected, on cells; not shown: Rluc, N-terminal, kept

Rluc-ADGRG2-ΔGPS-β F845A = molecular target: T4, Rluc-ADGRG2-ΔGPS-β F845A (mouse, UniProt Q8CJ12-3 38-995, F845A)
T4 construct: ADGRG2 (GPR64), mouse, ADGRG2-ΔGPS-β: the entire ECD removed; source: HEK293, transfected, on cells; not shown: Rluc, N-terminal, kept

Rluc-ADGRG2-ΔGPS-β V836A = molecular target: T5, Rluc-ADGRG2-ΔGPS-β V836A (mouse, UniProt Q8CJ12-3 38-995, V836A)
T5 construct: ADGRG2 (GPR64), mouse, ADGRG2-ΔGPS-β: the entire ECD removed; source: HEK293, transfected, on cells; not shown: Rluc, N-terminal, kept

Rluc-ADGRG2-ΔGPS-β W662A = molecular target: T6, Rluc-ADGRG2-ΔGPS-β W662A (mouse, UniProt Q8CJ12-3 38-995, W662A)
T6 construct: ADGRG2 (GPR64), mouse, ADGRG2-ΔGPS-β: the entire ECD removed; source: HEK293, transfected, on cells; not shown: Rluc, N-terminal, kept

Rluc-ADGRG2-ΔGPS-β M839A = molecular target: T7, Rluc-ADGRG2-ΔGPS-β M839A (mouse, UniProt Q8CJ12-3 38-995, M839A)
T7 construct: ADGRG2 (GPR64), mouse, ADGRG2-ΔGPS-β: the entire ECD removed; source: HEK293, transfected, on cells; not shown: Rluc, N-terminal, kept

Rluc-ADGRG2-ΔGPS-β F671A = molecular target: T8, Rluc-ADGRG2-ΔGPS-β F671A (mouse, UniProt Q8CJ12-3 38-995, F671A)
T8 construct: ADGRG2 (GPR64), mouse, ADGRG2-ΔGPS-β: the entire ECD removed; source: HEK293, transfected, on cells; not shown: Rluc, N-terminal, kept

Rluc-ADGRG2-ΔGPS-β I663A = molecular target: T9, Rluc-ADGRG2-ΔGPS-β I663A (mouse, UniProt Q8CJ12-3 38-995, I663A)
T9 construct: ADGRG2 (GPR64), mouse, ADGRG2-ΔGPS-β: the entire ECD removed; source: HEK293, transfected, on cells; not shown: Rluc, N-terminal, kept

Rluc-ADGRG2-ΔGPS-β F764A = molecular target: T10, Rluc-ADGRG2-ΔGPS-β F764A (mouse, UniProt Q8CJ12-3 38-995, F764A)
T10 construct: ADGRG2 (GPR64), mouse, ADGRG2-ΔGPS-β: the entire ECD removed; source: HEK293, transfected, on cells; not shown: Rluc, N-terminal, kept

Rluc-ADGRG2-ΔGPS-β V731A = molecular target: T11, Rluc-ADGRG2-ΔGPS-β V731A (mouse, UniProt Q8CJ12-3 38-995, V731A)
T11 construct: ADGRG2 (GPR64), mouse, ADGRG2-ΔGPS-β: the entire ECD removed; source: HEK293, transfected, on cells; not shown: Rluc, N-terminal, kept

Rluc-ADGRG2-ΔGPS-β F747A = molecular target: T12, Rluc-ADGRG2-ΔGPS-β F747A (mouse, UniProt Q8CJ12-3 38-995, F747A)
T12 construct: ADGRG2 (GPR64), mouse, ADGRG2-ΔGPS-β: the entire ECD removed; source: HEK293, transfected, on cells; not shown: Rluc, N-terminal, kept

Rluc-ADGRG2-ΔGPS-β L679A = molecular target: T13, Rluc-ADGRG2-ΔGPS-β L679A (mouse, UniProt Q8CJ12-3 38-995, L679A)
T13 construct: ADGRG2 (GPR64), mouse, ADGRG2-ΔGPS-β: the entire ECD removed; source: HEK293, transfected, on cells; not shown: Rluc, N-terminal, kept

[1] = molecular target: T14, Rluc-ADGRG2-ΔGPS-β wildtype (mouse, UniProt Q8CJ12-3 38-995)
T14 construct: also called WT; ADGRG2-ΔGPS-β WT; source: HEK293, transfected, on cells; not shown: Rluc, N-terminal, kept

Rluc-ADGRG2-ΔGPS-β F772A = molecular target: T15, Rluc-ADGRG2-ΔGPS-β F772A (mouse, UniProt Q8CJ12-3 38-995, F772A)
T15 construct: ADGRG2 (GPR64), mouse, ADGRG2-ΔGPS-β: the entire ECD removed; source: HEK293, transfected, on cells; not shown: Rluc, N-terminal, kept

Rluc-ADGRG2-ΔGPS-β V768A = molecular target: T16, Rluc-ADGRG2-ΔGPS-β V768A (mouse, UniProt Q8CJ12-3 38-995, V768A)
T16 construct: ADGRG2 (GPR64), mouse, ADGRG2-ΔGPS-β: the entire ECD removed; source: HEK293, transfected, on cells; not shown: Rluc, N-terminal, kept
T16 sequence (Q8CJ12 other isoform, or with tags, fused parts or gaps V768A | V768A | V768A V768A): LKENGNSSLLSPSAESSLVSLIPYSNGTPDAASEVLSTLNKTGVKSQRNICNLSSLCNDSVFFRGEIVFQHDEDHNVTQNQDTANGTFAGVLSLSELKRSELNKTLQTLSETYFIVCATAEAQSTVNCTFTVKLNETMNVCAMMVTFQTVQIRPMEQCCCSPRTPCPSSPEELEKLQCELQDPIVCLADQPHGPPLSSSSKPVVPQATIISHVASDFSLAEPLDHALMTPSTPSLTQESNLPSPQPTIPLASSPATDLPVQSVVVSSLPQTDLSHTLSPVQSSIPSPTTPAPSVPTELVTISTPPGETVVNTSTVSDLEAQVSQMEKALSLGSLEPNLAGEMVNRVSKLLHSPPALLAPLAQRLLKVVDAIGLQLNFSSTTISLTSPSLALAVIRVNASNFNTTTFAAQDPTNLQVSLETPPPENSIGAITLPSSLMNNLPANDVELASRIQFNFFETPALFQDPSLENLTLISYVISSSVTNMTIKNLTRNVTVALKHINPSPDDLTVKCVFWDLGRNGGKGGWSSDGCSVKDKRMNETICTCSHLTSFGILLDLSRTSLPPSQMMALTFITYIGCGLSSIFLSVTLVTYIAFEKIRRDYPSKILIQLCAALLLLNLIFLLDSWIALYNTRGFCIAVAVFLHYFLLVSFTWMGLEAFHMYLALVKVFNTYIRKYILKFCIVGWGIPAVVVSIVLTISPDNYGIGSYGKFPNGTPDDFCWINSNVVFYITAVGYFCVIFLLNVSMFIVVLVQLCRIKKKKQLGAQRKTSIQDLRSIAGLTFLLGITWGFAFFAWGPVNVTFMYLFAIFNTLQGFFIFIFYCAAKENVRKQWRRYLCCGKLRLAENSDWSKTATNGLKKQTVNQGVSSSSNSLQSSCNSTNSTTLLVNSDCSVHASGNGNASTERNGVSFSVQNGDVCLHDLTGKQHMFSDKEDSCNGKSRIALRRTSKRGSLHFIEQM

T1 sequence (Q8CJ12 other isoform, or with tags, fused parts or gaps V762A | V762A | V762A V762A): as the sequence (Q8CJ12 other isoform, or with tags, fused parts or gaps V768A | V768A | V768A V768A) above, with V725A, A731V counted along it
T8 sequence (Q8CJ12 other isoform, or with tags, fused parts or gaps F671A | F671A | F671A F671A): as the sequence (Q8CJ12 other isoform, or with tags, fused parts or gaps V768A | V768A | V768A V768A) above, with F634A, A731V counted along it
T15 sequence (Q8CJ12 other isoform, or with tags, fused parts or gaps F772A | F772A | F772A F772A): as the sequence (Q8CJ12 other isoform, or with tags, fused parts or gaps V768A | V768A | V768A V768A) above, with A731V, F735A counted along it
T14 sequence (Q8CJ12 other isoform, or with tags, fused parts or gaps mutant): as the sequence (Q8CJ12 other isoform, or with tags, fused parts or gaps V768A | V768A | V768A V768A) above, with A731V counted along it
T9 sequence (Q8CJ12 other isoform, or with tags, fused parts or gaps I663A | I663A | I663A I663A): as the sequence (Q8CJ12 other isoform, or with tags, fused parts or gaps V768A | V768A | V768A V768A) above, with I626A, A731V counted along it
T4 sequence (Q8CJ12 other isoform, or with tags, fused parts or gaps F845A | F845A | F845A F845A): as the sequence (Q8CJ12 other isoform, or with tags, fused parts or gaps V768A | V768A | V768A V768A) above, with A731V, F808A counted along it
T2 sequence (Q8CJ12 other isoform, or with tags, fused parts or gaps F838A | F838A | F838A F838A): as the sequence (Q8CJ12 other isoform, or with tags, fused parts or gaps V768A | V768A | V768A V768A) above, with A731V, F801A counted along it
T5 sequence (Q8CJ12 other isoform, or with tags, fused parts or gaps V836A | V836A | V836A V836A): as the sequence (Q8CJ12 other isoform, or with tags, fused parts or gaps V768A | V768A | V768A V768A) above, with A731V, V799A counted along it
T13 sequence (Q8CJ12 other isoform, or with tags, fused parts or gaps L679A | L679A | L679A L679A): as the sequence (Q8CJ12 other isoform, or with tags, fused parts or gaps V768A | V768A | V768A V768A) above, with L642A, A731V counted along it
T7 sequence (Q8CJ12 other isoform, or with tags, fused parts or gaps M839A | M839A | M839A M839A): as the sequence (Q8CJ12 other isoform, or with tags, fused parts or gaps V768A | V768A | V768A V768A) above, with A731V, M802A counted along it
T10 sequence (Q8CJ12 other isoform, or with tags, fused parts or gaps F764A | F764A | F764A F764A): as the sequence (Q8CJ12 other isoform, or with tags, fused parts or gaps V768A | V768A | V768A V768A) above, with F727A, A731V counted along it
T6 sequence (Q8CJ12 other isoform, or with tags, fused parts or gaps W662A | W662A | W662A W662A): as the sequence (Q8CJ12 other isoform, or with tags, fused parts or gaps V768A | V768A | V768A V768A) above, with W625A, A731V counted along it
T3 sequence (Q8CJ12 other isoform, or with tags, fused parts or gaps F828A | F828A | F828A F828A): as the sequence (Q8CJ12 other isoform, or with tags, fused parts or gaps V768A | V768A | V768A V768A) above, with A731V, F791A counted along it
T11 sequence (Q8CJ12 other isoform, or with tags, fused parts or gaps V731A | V731A | V731A V731A): as the sequence (Q8CJ12 other isoform, or with tags, fused parts or gaps V768A | V768A | V768A V768A) above, with V694A, A731V counted along it
T12 sequence (Q8CJ12 other isoform, or with tags, fused parts or gaps F747A | F747A | F747A F747A): as the sequence (Q8CJ12 other isoform, or with tags, fused parts or gaps V768A | V768A | V768A V768A) above, with F710A, A731V counted along it

VS[Phe(4-Me)]GILLDLSRTSLP-{FITC′} [FITC-conjugated VPM-p15 (ADGRG2 Stachel peptide p15 T1V/F3Phe(4-Me))]
EC50 (Rluc-ADGRG2-ΔGPS-β V762A): 1190 nM | EC50 (Rluc-ADGRG2-ΔGPS-β F838A): 767 nM | EC50 (Rluc-ADGRG2-ΔGPS-β F828A): 1170 nM | EC50 (Rluc-ADGRG2-ΔGPS-β F845A): 1360 nM | EC50 (Rluc-ADGRG2-ΔGPS-β V836A): 1230 nM | EC50 (Rluc-ADGRG2-ΔGPS-β W662A): 1060 nM | EC50 (Rluc-ADGRG2-ΔGPS-β M839A): 896 nM | EC50 (Rluc-ADGRG2-ΔGPS-β F671A): 880 nM | EC50 (Rluc-ADGRG2-ΔGPS-β I663A): 772 nM | EC50 (Rluc-ADGRG2-ΔGPS-β F764A): 1110 nM | EC50 (Rluc-ADGRG2-ΔGPS-β V731A): 838 nM | EC50 (Rluc-ADGRG2-ΔGPS-β F747A): 759 nM | EC50 (Rluc-ADGRG2-ΔGPS-β L679A): 1160 nM | EC50 [1]: 936 nM | EC50 (Rluc-ADGRG2-ΔGPS-β F772A): 842 nM | EC50 (Rluc-ADGRG2-ΔGPS-β V768A): 1040 nM

Source: article PMC7948503, “Optimization of a peptide ligand for the adhesion GPCR ADGRG2 provides a potent tool to explore receptor biology” (The Journal of Biological Chemistry, 2020)
